Test results as given in patent US20210147564A1 (published 2021).

T1: human BCMA ECD protein (Abcam ab50089) (human, UniProt Q02223 1-54)
T1 chain: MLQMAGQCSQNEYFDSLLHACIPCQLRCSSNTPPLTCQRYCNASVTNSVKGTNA


What was measured:
[1] = target: BCMA protein of Cynomolgus macaque (Cynomolgus macaque, UniProt A0A2K5UD97 1-53); test: Octet off-rate
[2] = target: T1, human BCMA ECD protein (Abcam ab50089); test: Octet off-rate

Chain of BCMA protein of Cynomolgus macaque (A0A2K5UD97 entry or part of it): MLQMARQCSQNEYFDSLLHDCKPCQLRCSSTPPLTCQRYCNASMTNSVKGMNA

koff [1] [s⁻¹]	koff [2] [s⁻¹]	Binder
0.00189	< 1e-07	heavy chain-only anti-BCMA antibody (UniAb) with the heavy chain variable region of SEQ ID NO: 13 (antibody, V domains shown) VH: QVQLVESGGGLVQPGGSLRLSCAASGFTFSSHAMTWVRQAPGKGLEWVAAISGSGDFTHYADSVKGRFTISRDNSKNTVSLQMNNLRAEDTAVYYCAKDEDGGSLLGYRGQGTLVTVSS
0.000322	< 1e-07	heavy chain-only anti-BCMA antibody (UniAb) with the heavy chain variable region of SEQ ID NO: 15 (antibody, V domains shown) VH: EVQLLESGGGLVQPGGSLRLSCAASGFTFSSYAMSWVRQAPGKGLEWVSSISGSGDYIYYADSVKGRFTISRDISKNTLYLQMNSLRAEDTAVYYCAKEGTGANSSLADYRGQGTLVTVSS
0.000941	< 1e-07	heavy chain-only anti-BCMA antibody (UniAb) with the heavy chain variable region of SEQ ID NO: 12 (antibody, V domains shown) VH: QVQLVESGGGLVQPGGSLRLSCAASGFTFTNHAMSWVRQAPGKGLELVSSISGNGRTTYYADSVKGRFTISRDISKNTLDLQMNSLRAEDTAVYYCAKDGGETLVDSRGQGTLVTVSS
